biological target: trkA + p75 receptors on rat PC12 pheochromocytoma cells (rat) (UniProt P35739); test: 125I-hNGF displacement, PC12 cells (trkA+p75), 4 C
Sequence (P35739 33-799, chain 1 of 2): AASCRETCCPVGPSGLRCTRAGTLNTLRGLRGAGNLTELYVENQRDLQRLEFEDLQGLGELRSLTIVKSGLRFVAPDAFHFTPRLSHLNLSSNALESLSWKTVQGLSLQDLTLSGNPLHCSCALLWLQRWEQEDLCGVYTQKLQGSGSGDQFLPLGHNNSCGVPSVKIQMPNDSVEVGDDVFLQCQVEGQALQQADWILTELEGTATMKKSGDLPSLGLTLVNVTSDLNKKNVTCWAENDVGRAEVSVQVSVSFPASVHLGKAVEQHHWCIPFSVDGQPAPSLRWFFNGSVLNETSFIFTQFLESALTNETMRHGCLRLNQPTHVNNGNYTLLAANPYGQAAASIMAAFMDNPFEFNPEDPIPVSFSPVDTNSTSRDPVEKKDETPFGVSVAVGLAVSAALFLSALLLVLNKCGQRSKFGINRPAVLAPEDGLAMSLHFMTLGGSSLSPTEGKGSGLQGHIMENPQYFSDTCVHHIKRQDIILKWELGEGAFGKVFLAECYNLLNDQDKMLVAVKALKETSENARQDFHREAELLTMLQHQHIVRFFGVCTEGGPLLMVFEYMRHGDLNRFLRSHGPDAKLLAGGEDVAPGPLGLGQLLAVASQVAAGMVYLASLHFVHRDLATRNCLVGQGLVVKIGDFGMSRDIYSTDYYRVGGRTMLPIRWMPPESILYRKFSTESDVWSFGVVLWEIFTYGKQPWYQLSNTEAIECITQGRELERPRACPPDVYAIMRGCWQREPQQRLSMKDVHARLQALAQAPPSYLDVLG
Sequence (P07174 30-425, chain 2 of 2, further chain): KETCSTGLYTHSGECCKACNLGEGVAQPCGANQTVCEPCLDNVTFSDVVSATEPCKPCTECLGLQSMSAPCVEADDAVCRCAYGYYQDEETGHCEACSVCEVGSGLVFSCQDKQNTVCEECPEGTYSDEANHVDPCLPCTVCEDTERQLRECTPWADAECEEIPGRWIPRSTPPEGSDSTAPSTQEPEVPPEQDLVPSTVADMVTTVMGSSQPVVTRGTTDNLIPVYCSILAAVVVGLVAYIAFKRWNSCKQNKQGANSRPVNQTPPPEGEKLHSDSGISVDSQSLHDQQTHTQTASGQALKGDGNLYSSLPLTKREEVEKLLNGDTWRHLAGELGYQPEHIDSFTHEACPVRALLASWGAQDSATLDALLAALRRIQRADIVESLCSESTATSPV

Substance	IC50 [pM]
hNGF Mut 1 (H4A) (from UniProt P01138 122-241) (ligand)	180
hNGF Mut 2 (H4D) (from UniProt P01138 122-241) (ligand)	430
hNGF (10-118) (from UniProt P01138 131-239) (ligand)	4100
mNGF (1-118) (from UniProt P01139 122-239) (ligand)	60
hNGF Mut 3 (R9A) (from UniProt P01138 122-241) (ligand)	180
hNGF (6-118) (from UniProt P01138 127-239) (ligand)	130
hNGF (1-118) (from UniProt P01138 122-239) (ligand)	50
hNGF Mut 4 (H4A, H8A, R9A) (from UniProt P01138 122-241) (ligand)	390
